Residue numbers refer to the chain shown, from its start.
B1: anti-GPC-3 bi-specific T cell-engaging antibody clone 1C4 (bispecific antibody)
VH: QVQLVQSGGGLVKPGRSLRLSCTASGFTFGDYAMHWVRQAPGKGLEWVAVISYDGSNKYYADSVKGRFTISRDNSKNTLYLQMNSLRAEDTAVYYCARDYGDYYRPYGMDVWGQGTT
VL: DIQMTQSPSTLSASVGDRVTITCRASQSISKWLAWYQHKPGKAPKVLIYKASTLQSGVPSRFSGSGSGTEFTLTISSLQPEDFATYYCQQLNSYPLTFGGGTK
scFv: DVQLVQSGAEVKKPGASVKVSCKASGYTFTRYTMHWVRQAPGQGLEWIGYINPSRGYTNYADSVKGRFTITTDKSTSTAYMELSSLRSEDTATYYCARYYDDHYCLDYWGQGTTVTVSSGEGTSTGSGGSGGSGGADDIVLTQSPATLSLSPGERATLSCRASQSVSYMNWYQQKPGKAPKRWIYDTSKVASGVPARFSGSGSGTDYSLTINSLEAEDAATYYCQQWSSNPLTFGGGTKVEIK
notes: The Fab region of one arm of the IgG is replaced by the anti-CD3 scFv; knob-in-hole and LALA mutations in the Fc; also called 1C4 bi-specific
B2: anti-GPC-3 bi-specific T cell-engaging antibody clone 5C4 (bispecific antibody)
VH: QVQLQESGGGLVKPGGSLRLSCAASGFTFSSYSMNWVRQAPGKGLEWVAVISYDGSNKYYADSVKGRFTISRDNSKNTLYLQMNSLRTEDTAVYYCARGAGPFTGFNWFDPWGQGTL
VL: EIVLTQSPATLSVSPGERATLSCRASQSVDSYLAWYQQKPGQAPRLLIYSASTRATGIPARFSGTGSGTEFTLTISSLQSEDFAVYYCQQYKRWPTWTFGLGTR
scFv: B1 scFv
notes: The Fab region of one arm of the IgG is replaced by the anti-CD3 scFv; knob-in-hole and LALA mutations in the Fc; also called 5C4 bi-specific
B3: anti-GPC-3 bi-specific T cell-engaging antibody clone 4H1 (bispecific antibody)
VH: EVQLVQSGGGVVQPGRSLRLSCAASGFTFSSYAMHWVRQAPGKGLEWVAVISYDGSNKYYADSVKGRFTISRDNSKNTLYLQMNSLRAEDTAVYYCARAPGLEDYWGQGTL
VL: DIQMTQSPSSLSASVGDRVTITCRASQSISSYLNWYQQKPGTAPKLLIYAASSSLQSGVPSRFSGSGSGTDFALTISSLQPEDFATYYCLQDYNYPLTFGGGTK
scFv: B1 scFv
notes: The Fab region of one arm of the IgG is replaced by the anti-CD3 scFv; knob-in-hole and LALA mutations in the Fc; also called 4H1 bi-specific
B4: anti-GPC-3 bi-specific T cell-engaging antibody clone 2B5 (bispecific antibody)
VH: QVQLQESGGGVVQPGRSLRLSCAASGFTFSSYAMHWVRQAPGKGLEWVAVISYDGSNKYYADSVKGRFTISRDNSKNTLYLQMNSLRAEDTAVYYCAKEGTYYYDSSGYWDYYYGMDVWGQGTT
VL: DVVMTQSPLSLPVTPGEPASISCRSSQSLLDSDGYNFLDWYVQKPGQSPQRLIYLGSIRASGVPDRFSGSGSGTDFTLKISRVEADDVGVYYCMQALQTPWTFGQGTK
scFv: B1 scFv
notes: The Fab region of one arm of the IgG is replaced by the anti-CD3 scFv; knob-in-hole and LALA mutations in the Fc; also called 2B5 bi-specific
B5: anti-GPC-3 bi-specific T cell-engaging antibody clone 1D2 (bispecific antibody)
VH: EVQLVQSGAEVKKPGSSVKVSCKASGGTFSSYAISWVRQAPGQGLEWMGGIIPIFGTANYAQKFQGRVTITADKSTSTAYMELSSLRSEDTAVYYCAREWQQQLVPLGYMDVWGKGTT
VL: ETTLTQSPGTLSLSPGERATLSCRASHSVSSNFLAWYQQKPGQAPRLLIYAASSRTTGVPDRFSGSGSGTDFTLTISRLEPEDSAVYYCQQYGYSPLYTFGQGTK
scFv: B1 scFv
notes: The Fab region of one arm of the IgG is replaced by the anti-CD3 scFv; knob-in-hole and LALA mutations in the Fc; also called 1D2 bi-specific
B6: anti-GPC-3 IgG1 clone 3C12 (antibody, V domains shown)
VH: QVTLKESGPTLVKPTQTLTLTCTFSGFSLSTSGVGVGWIRQPPGKALEWLALIYWNDDKRYSPSLKSRLTITKDTSKNQVVLTMTNMDPVDTATYYCAHSRIAARRVLDYWGQGTL
VL: QSVLTQPPSASVAPGKTARITCGGNNIGSKSVHWYQQKPGQSPVLVIYQDTKRPSGIPERFSGSNSGNTATLTISGAQPMDEADYYCQAWYSTIMVFGGGTK
notes: Tested as IgG1; also called monoclonal antibody 3C12
B7: anti-GPC-3 IgG1 clone 1C4 (antibody, V domains shown)
VH: B1 VH
VL: B1 VL
notes: Tested as IgG1; also called monoclonal antibody 1C4
B8: anti-GPC-3 IgG1 clone 1H1 (antibody, V domains shown)
VH: QVQLQESGAGLLRPSETLSLTCAVYGGSFSGYYWSWIRQPPGKGLEWLGEISHSGSTNYNPSLKSRVTISVDTSKNQFSLKLSSVTAADAAVYYCARWVWSGYYNGEGYFDLWGRGTL
VL: ETTLTQSPGTLSLSPGERATLSCRASQSVSSSYLAWYQQKPGQAPRLLIYGASSRATGIPDRFSGRGSGTDFTLTITRLEPEDFAVYYCQYYGSSPRTFGQGTK
notes: Tested as IgG1; also called monoclonal antibody 1H1
B9: anti-GPC-3 IgG1 clone 4A5 (antibody, V domains shown)
VH: EVQLVQSGAEVKKPGASVKVSCKASGYTFTSYGISWVRQAPGQGLEWMGWISAYNGNTNYAQKLQGRVTMTTDTSTSTAYMELRSLRSDDTAVYYCARDGLSSSWFYYYYGMDVWGQGTT
VL: not shown
notes: Tested as IgG1; also called monoclonal antibody 4A5
B10: anti-GPC-3 IgG1 clone 4H1 (antibody, V domains shown)
VH: B3 VH
VL: B3 VL
notes: Tested as IgG1; also called monoclonal antibody 4H1
B11: anti-GPC-3 IgG1 clone 3D12 (antibody, V domains shown)
VH: B5 VH with E99G, W100I, Q101A, Q102A, Q103R, L104P, V105S, P106Y, L107Y, G108Y
VL: not shown
notes: Tested as IgG1; also called monoclonal antibody 3D12
B12: anti-GPC-3 IgG1 clone 1D2 (antibody, V domains shown)
VH: B5 VH
VL: B5 VL
notes: Tested as IgG1; also called monoclonal antibody 1D2
B13: anti-GPC-3 IgG1 clone 4F9 (antibody, V domains shown)
VH: EVQLVQSGAEVKKPGASVKVSCKASGYTFRNYGISWVRQAPGQGLEWMGWISAYNGNTNYAQKLQGRVTMTTDTSTSTAYMELRSLRSDDTAVYYCARADSSSWYVGTYYYYYGMDVWGQGTT
VL: not shown
notes: Tested as IgG1; also called monoclonal antibody 4F9
B14: anti-GPC-3 IgG1 clone 1D3 (antibody, V domains shown)
VH: QVQLVQSGAEVKKPGASVKVSCKASGYTFTGYYMHWVRQAPGQGLEWMGWINPNSGGTNYAQNFQGRVTITRDTSASTAYMELSSLRSEDTAVYYCARGSWQTGSFDIWGQGTT
VL: SYELTQPPSVSGTPGQSVTISCSGSNSNLGSNYVYWYQVVPGTAPKLVIYRNKYRPPGVPDRFSGSKSGTSASLAISGLRSDDEAEYYCSGWDDSLSGRLFGGGTK
notes: Tested as IgG1; also called monoclonal antibody 1D3
B15: anti-GPC-3 IgG1 clone 1F1 (antibody, V domains shown)
VH: QVQLVQSGAEVKKPGASVKVSCKASGYTFTSYGISWVRQAPGQRLEWMGWINAGNGNTKYSQKFQGRVTITRDTSASTAYMELSSLRSEDTAVYYCATVVYWGQGTL
VL: EIVLTQSPLSLPVTPGEPASISCRSSQSLLHSNGYNYLDWYLQKPGQSPQILIYLGSHRASGVPDRFSGSASGTDFTLKISRVEAEDVGVYYCMQALQTPLTFGGGTK
notes: Tested as IgG1; also called monoclonal antibody 1F1
B16: anti-GPC-3 IgG1 clone 4G11 (antibody, V domains shown)
VH: QVQLQESGPGLVKPSGTLSLTCAVSGGSISSSNWWSWVRQPPGKGLEWIGEIYHSGSTNYNPSLKSRVTISVDKSKNQFSLKLSSVTAADTAVYYCARDTSGVAFDYWGQGTL
VL: EIVLTQSPGTLSLSPGERATLSCRASQSVSSSYLAWYQQKPGQAPRLLIYGASSRATGIPDRFSGGGSGTDFTLTISRLEPEDSAVYYCQQYDHSPTFGQGTK
notes: Tested as IgG1; also called monoclonal antibody 4G11
B17: anti-GPC-3 IgG1 clone 4A12 (antibody, V domains shown)
VH: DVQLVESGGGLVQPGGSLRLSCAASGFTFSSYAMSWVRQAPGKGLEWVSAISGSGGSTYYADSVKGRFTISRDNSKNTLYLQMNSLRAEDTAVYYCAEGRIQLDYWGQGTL
VL: LPVLTQPPSVSVSPGQTARITCSGYELGDKYAFWYQQKPGQSPVLVIYQDTKRPSGIPERFSGSSSGDTATLIISGTQILDEADYYCQAWDSSTHVVFGGGTK
notes: Tested as IgG1; also called monoclonal antibody 4A12

target: T1, human CD3 on human T cells (human, UniProt P07766 23-207); experiment: flow cytometry on human T cells (CD3 Positive), % positive cells
T1 construct: whole, on cells; CD3 is a complex of several chains on T cells; also called CD3^Positive human T cells
Description: (§1) The ability of these anti-GPC-3 bi-specific T cell-engaging antibodies to specifically recognize and bind to both GPC-3 and human CD3 molecules on cell surface was measured using HepG2 (GPC-3^Positive), SK-Hep1 (GPC-3^Negative), and human T cells (CD3^Positive) cells.
(§2) Briefly, HepG2 (GPC-3^Positive), SK-Hep1 (GPC-3^Negative) and human T cells (CD3^Positive) were seeded in cell suspension at 100000 per well in 96-well round-bottom plate prior to incubation with different concentrations of anti-GPC-3 bi-specific T cell-engaging antibodies. Binding was measured by flow cytometry using a secondary labelled antibody. In this assay, all 5 anti-GPC-3 bi-specific T-cell engaging antibodies bound strongly to the GPC-3 expressing cell HepG2 (FIG. 8B) as well as human T cells expressing CD3 (FIG. 8D).

Binder	EC50 (read off the curve)
B1	~200 nM
B2	~100 nM
B3	~300 nM
B4	~400 nM
B5	~300 nM

target: T2, recombinant human GPC-3 protein (human, UniProt P51654 25-559, limits assumed); experiment: binding ELISA with biotin-hGPC-3, EC50 calculated from the curves of FIG. 1A to 1C
T2 construct: also called glypican-3; recombinant GPC-3 protein

Binder	EC50
B6	6.76 nM
B7	1.95 nM
B8	5.42 nM
B9	15.6 nM
B10	4.1 nM
B11	45.5 nM
B12	1.42 nM
B13	5.29 nM
B14	1.17 nM
B15	10.6 nM
B16	7.59 nM
B17	6.61 nM

target: T3, human GPC-3 on the surface of HepG2 and Hep3B cells (human, UniProt P51654 25-554); experiment: flow cytometry on HepG2 (GPC-3 Positive) cells, % positive cells
T3 construct: whole, on cells; Endogenous GPC-3 of human hepatoma cell lines; also called GPC-3 expressing HepG2 cells; GPC-3^High HepG2
Description: as §1, §2

Binder	EC50 (read off the curve)
B1	~10 nM
B2	~20 nM
B3	~100 nM
B4	~100 nM
B5	~70 nM

target: T2, recombinant human GPC-3 protein; experiment: SPR, Biacore T200
Description: Affinity of 24 anti-GPC-3 IgG₁ antibodies was measured via Surface Plasmon Resonance (SPR) analysis using Biacore™ T200 system and shown in Table E3 (below).

Binder	Kd	koff	kon
B6	31.2 nM	0.00783 s⁻¹	251000 M⁻¹ s⁻¹
B7	14.1 nM	0.0134 s⁻¹	949000 M⁻¹ s⁻¹
B8	33.9 nM	0.00596 s⁻¹	176000 M⁻¹ s⁻¹
B9	12.5 nM	0.000946 s⁻¹	75700 M⁻¹ s⁻¹
B10	44.2 nM	0.0137 s⁻¹	311000 M⁻¹ s⁻¹
B11	32.4 nM	0.0035 s⁻¹	108000 M⁻¹ s⁻¹
B12	4.18 nM	0.00257 s⁻¹	615000 M⁻¹ s⁻¹
B13	10.5 nM	0.00172 s⁻¹	164000 M⁻¹ s⁻¹
B14	17.2 nM	0.00293 s⁻¹	170000 M⁻¹ s⁻¹
B15	13.8 nM	0.00552 s⁻¹	399000 M⁻¹ s⁻¹
B16	15.5 nM	0.00229 s⁻¹	147000 M⁻¹ s⁻¹
B17	22.9 nM	0.00609 s⁻¹	266000 M⁻¹ s⁻¹

target: T3, human GPC-3 on the surface of HepG2 and …; experiment: flow cytometry on HepG2 (GPC-3 Positive) cells, mean-APC
Description: as §1, §2

Binder	EC50 (read off the curve)
B1	~700 nM
B2	~800 nM

Reference: US20260042862A1 (AGENCY FOR SCIENCE TECHNOLOGY AND RESEARCH, published 2026)
